Data taken from the supplement of paper PMC10567573.

B1: CD207 (parent)
chain: MTVEKEAPDAHFTVDKQNISLWPR
B2: TRIB1 (parent)
chain: SYVRSRKRLREEEAARLFKQIVSA

Variants of: B1
Experiment: protein stability index of a GFP-peptide fusion (GPS, HEK-293T) (PSI 1-6); higher = more stable
Settings: c terminus: a fixed tail appended
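Further: lentivirally expressed fusions sorted by FACS into six bins by GFP to DsRed ratio, PSI derived from sequencing read proportions per bin multiplied by bin number.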

Variant	protein stability index
MTVEKEAPDAHFTVDKQNISLWGR [P23G]	3
MTVEKEAPDAHFTVDKQNISLWNR [P23N]	3.82
MTVEKEAPDAHFTVDKQNISLWKR [P23K]	3.69
MTVEKEAPDAHFTVDKQNISLWQR [P23Q]	3.14
MTVEKEAPDAHFTVDKQNISLWTR [P23T]	2.93
MTVEKEAPDAHFTVDKQNISLWLR [P23L]	2.62
MTVEKEAPDAHFTVDKQNISLWCR [P23C]	2.69
MTVEKEAPDAHFTVDKQNISLWSR [P23S]	2.64
MTVEKEAPDAHFTVDKQNISLWWR [P23W]	2.52
MTVEKEAPDAHFTVDKQNISLWMR [P23M]	2.84
MTVEKEAPDAHFTVDKQNISLWIR [P23I]	2.91
MTVEKEAPDAHFTVDKQNISLWFR [P23F]	2.71
MTVEKEAPDAHFTVDKQNISLWAR [P23A]	3.39
MTVEKEAPDAHFTVDKQNISLWHR [P23H]	2.9
MTVEKEAPDAHFTVDKQNISLWYR [P23Y]	2.62
MTVEKEAPDAHFTVDKQNISLWER [P23E]	3.84
MTVEKEAPDAHFTVDKQNISLWRR [P23R]	3.43
MTVEKEAPDAHFTVDKQNISLWDR [P23D]	4.51
MTVEKEAPDAHFTVDKQNISLWPE [R24E]	4.83
MTVEKEAPDAHFTVDKQNISLWPT [R24T]	3.63
MTVEKEAPDAHFTVDKQNISLWPP [R24P]	3.28
MTVEKEAPDAHFTVDKQNISLWPL [R24L]	2.95
MTVEKEAPDAHFTVDKQNISLWPN [R24N]	4.12
MTVEKEAPDAHFTVDKQNISLWPD [R24D]	4.53
MTVEKEAPDAHFTVDKQNISLWPG [R24G]	3.72

Variant	protein stability index
MTVEKEAPDAHFTVDKQNISLWPI [R24I]	2.9
MTVEKEAPDAHFTVDKQNISLWPY [R24Y]	2.83
MTVEKEAPDAHFTVDKQNISLWPQ [R24Q]	3.97
MTVEKEAPDAHFTVDKQNISLWPM [R24M]	2.24
MTVEKEAPDAHFTVDKQNISLWPV [R24V]	3.07
MTVEKEAPDAHFTVDKQNISLWPK [R24K]	3.87
MTVEKEAPDAHFTVDKQNISLWPH [R24H]	3.69
MTVEKEAPDAHFTVDKQNISLWPC [R24C]	3.16
MTVEKEAPDAHFTVDKQNISLWPF [R24F]	3.42
MTVEKEAPDAHFTVDKQNISLWPA [R24A]	3.98
MTVEKEAPDAHFTVDKQNISLWPW [R24W]	2.78
MTVEKEAPDAHFTVDKQNISLWPS [R24S]	3.57
MTVEKEAPDAHFTVDKQNISLIPR [W22I]	4.73
MTVEKEAPDAHFTVDKQNISLNPR [W22N]	4.4
MTVEKEAPDAHFTVDKQNISLHPR [W22H]	4.21
MTVEKEAPDAHFTVDKQNISLLPR [W22L]	4.42
MTVEKEAPDAHFTVDKQNISLPPR [W22P]	4.64
MTVEKEAPDAHFTVDKQNISLMPR [W22M]	4.19
MTVEKEAPDAHFTVDKQNISLVPR [W22V]	4.32
MTVEKEAPDAHFTVDKQNISLQPR [W22Q]	4.29
MTVEKEAPDAHFTVDKQNISLSPR [W22S]	4.69
MTVEKEAPDAHFTVDKQNISLRPR [W22R]	4.1
MTVEKEAPDAHFTVDKQNISLTPR [W22T]	4.34
MTVEKEAPDAHFTVDKQNISLKPR [W22K]	4.99
MTVEKEAPDAHFTVDKQNISLYPR [W22Y]	3.83

Variants of: B2
Experiment: as above
Settings: c terminus: a fixed tail appended

Variant	protein stability index
SYVRSRHRLREEEAARLFKQIVSA [K7H]	1.58
SYVRSRTRLREEEAARLFKQIVSA [K7T]	2.52
SYVRSRWRLREEEAARLFKQIVSA [K7W]	1.62
SYVRSRGRLREEEAARLFKQIVSA [K7G]	2.99
SYVRSRPRLREEEAARLFKQIVSA [K7P]	2.03
SYVRSRIRLREEEAARLFKQIVSA [K7I]	1.86
SYVRSRARLREEEAARLFKQIVSA [K7A]	2.06
SYVRSRSRLREEEAARLFKQIVSA [K7S]	2.53
SYVRSRERLREEEAARLFKQIVSA [K7E]	2.5
SYVRSRDRLREEEAARLFKQIVSA [K7D]	3.05
SYVRSRRRLREEEAARLFKQIVSA [K7R]	2.11
SYVRSRYRLREEEAARLFKQIVSA [K7Y]	1.93
SYVRSRCRLREEEAARLFKQIVSA [K7C]	2.34
SYVRSRQRLREEEAARLFKQIVSA [K7Q]	2.02
SYVRSRMRLREEEAARLFKQIVSA [K7M]	2.38
SYVRSRFRLREEEAARLFKQIVSA [K7F]	2.12
SYVRSRNRLREEEAARLFKQIVSA [K7N]	2.15
SYVRSKKRLREEEAARLFKQIVSA [R6K]	2.63
SYVRSMKRLREEEAARLFKQIVSA [R6M]	1.54
SYVRSTKRLREEEAARLFKQIVSA [R6T]	2.07
SYVRSFKRLREEEAARLFKQIVSA [R6F]	1.42
SYVRSVKRLREEEAARLFKQIVSA [R6V]	1.95

Variant	protein stability index
SYVRSSKRLREEEAARLFKQIVSA [R6S]	2.21
SYVRSQKRLREEEAARLFKQIVSA [R6Q]	1.88
SYVRSWKRLREEEAARLFKQIVSA [R6W]	1.97
SYVRSDKRLREEEAARLFKQIVSA [R6D]	2.99
SYVRSNKRLREEEAARLFKQIVSA [R6N]	1.81
SYVRSGKRLREEEAARLFKQIVSA [R6G]	1.72
SYVRSLKRLREEEAARLFKQIVSA [R6L]	1.85
SYVRSHKRLREEEAARLFKQIVSA [R6H]	2.33
SYVRSYKRLREEEAARLFKQIVSA [R6Y]	2.23
SYVRSPKRLREEEAARLFKQIVSA [R6P]	2.66
SYVRSAKRLREEEAARLFKQIVSA [R6A]	1.89
SYVRSIKRLREEEAARLFKQIVSA [R6I]	2
SYVRSCKRLREEEAARLFKQIVSA [R6C]	1.85
SYFRSRKRLREEEAARLFKQIVSA [V3F]	2.64
SYTRSRKRLREEEAARLFKQIVSA [V3T]	2.12
SYERSRKRLREEEAARLFKQIVSA [V3E]	1.83
SYIRSRKRLREEEAARLFKQIVSA [V3I]	1.69
SYNRSRKRLREEEAARLFKQIVSA [V3N]	2.08
SYYRSRKRLREEEAARLFKQIVSA [V3Y]	1.98
SYHRSRKRLREEEAARLFKQIVSA [V3H]	1.22
SYCRSRKRLREEEAARLFKQIVSA [V3C]	1.71
SYWRSRKRLREEEAARLFKQIVSA [V3W]	1.61
